Target: human SLC15A4 of the SLC15A4/ALFA_Nanobody/C5 complex (cryo-EM sample) (human) (UniProt Q8N697)
Experiment: cryo-EM structure; purified SLC15A4/ALFA_Nanobody/C5 complex, 10 µM C5 in all buffers and 100 µM added to peak SEC fractions, 15 mg/ml; 2D averages showed dimeric and monomeric forms; the dimer resolved at 2.50 Å

human SLC15A4 of the SLC15A4/ALFA_Nanobody/C5 complex (cryo-EM sample) (from UniProt Q8N697 1-577) (natural protein)
stoichiometry N: 2

— paper PMC10589233
